Source: patent EP4682166A1 (Guangzhou Enmai Biotechnology Co., Ltd, dated 2026)

T1: human NMI (N-myc Interacting protein), recombinant protein (human, UniProt Q13287 1-307, limits assumed)
T1 construct: Gene ID: 9111; also called hNMI; antigen
T1 sequence (looked up): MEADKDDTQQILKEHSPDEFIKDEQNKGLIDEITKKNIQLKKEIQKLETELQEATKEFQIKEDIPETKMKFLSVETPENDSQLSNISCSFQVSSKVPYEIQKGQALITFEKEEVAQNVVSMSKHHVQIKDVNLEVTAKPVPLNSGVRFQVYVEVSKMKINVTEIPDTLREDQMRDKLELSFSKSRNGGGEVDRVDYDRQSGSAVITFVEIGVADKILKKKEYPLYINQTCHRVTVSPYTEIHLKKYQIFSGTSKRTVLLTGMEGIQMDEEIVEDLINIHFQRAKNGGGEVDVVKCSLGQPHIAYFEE


Target: T1, human NMI (N-myc Interacting protein), …
Test: ELISA EC50 against parent 39B4

Row | Fold decrease in affinity [fold] | Binder
1 | > 500 | 39B4 mutant Y102F (VH) (antibody, V domains shown) VH: QEQLVESGGGLVQPEGSLTLTCTASGFSFSSSYWICWVRQAPGKGLEWIACIYAGTSGSTYYASWAKGRFTISKTSSTTVDLQMNSLTAADTATYFCARAGFYTYGAGVYIYPSSFKLWGPGTLVTVSS VL: DVVMTQTPASVEAAVGGTVTIKCQASESIGNALAWYQQKPGQPPKLLIYSASNLASGVPSRFSGSGSGTQFTLTISDLECADAATYYCQSYYYSSSSITFGGGTEVVVK
2 | > 500 | 39B4 mutant G106Y (VH) (antibody, V domains shown) VH: QEQLVESGGGLVQPEGSLTLTCTASGFSFSSSYWICWVRQAPGKGLEWIACIYAGTSGSTYYASWAKGRFTISKTSSTTVDLQMNSLTAADTATYFCARAGYYTYYAGVYIYPSSFKLWGPGTLVTVSS VL: DVVMTQTPASVEAAVGGTVTIKCQASESIGNALAWYQQKPGQPPKLLIYSASNLASGVPSRFSGSGSGTQFTLTISDLECADAATYYCQSYYYSSSSITFGGGTEVVVK
3 | > 500 | 39B4 mutant V109Q (VH) (antibody, V domains shown) VH: QEQLVESGGGLVQPEGSLTLTCTASGFSFSSSYWICWVRQAPGKGLEWIACIYAGTSGSTYYASWAKGRFTISKTSSTTVDLQMNSLTAADTATYFCARAGYYTYGAGQYIYPSSFKLWGPGTLVTVSS VL: DVVMTQTPASVEAAVGGTVTIKCQASESIGNALAWYQQKPGQPPKLLIYSASNLASGVPSRFSGSGSGTQFTLTISDLECADAATYYCQSYYYSSSSITFGGGTEVVVK
4 | > 500 | 39B4 mutant V109K (VH) (antibody, V domains shown) VH: QEQLVESGGGLVQPEGSLTLTCTASGFSFSSSYWICWVRQAPGKGLEWIACIYAGTSGSTYYASWAKGRFTISKTSSTTVDLQMNSLTAADTATYFCARAGYYTYGAGKYIYPSSFKLWGPGTLVTVSS VL: DVVMTQTPASVEAAVGGTVTIKCQASESIGNALAWYQQKPGQPPKLLIYSASNLASGVPSRFSGSGSGTQFTLTISDLECADAATYYCQSYYYSSSSITFGGGTEVVVK
5 | > 500 | 39B4 mutant A107R (VH) (antibody, V domains shown) VH: QEQLVESGGGLVQPEGSLTLTCTASGFSFSSSYWICWVRQAPGKGLEWIACIYAGTSGSTYYASWAKGRFTISKTSSTTVDLQMNSLTAADTATYFCARAGYYTYGRGVYIYPSSFKLWGPGTLVTVSS VL: DVVMTQTPASVEAAVGGTVTIKCQASESIGNALAWYQQKPGQPPKLLIYSASNLASGVPSRFSGSGSGTQFTLTISDLECADAATYYCQSYYYSSSSITFGGGTEVVVK
6 | > 500 | 39B4 mutant A107Q (VH) (antibody, V domains shown) VH: QEQLVESGGGLVQPEGSLTLTCTASGFSFSSSYWICWVRQAPGKGLEWIACIYAGTSGSTYYASWAKGRFTISKTSSTTVDLQMNSLTAADTATYFCARAGYYTYGQGVYIYPSSFKLWGPGTLVTVSS VL: DVVMTQTPASVEAAVGGTVTIKCQASESIGNALAWYQQKPGQPPKLLIYSASNLASGVPSRFSGSGSGTQFTLTISDLECADAATYYCQSYYYSSSSITFGGGTEVVVK
7 | > 500 | 39B4 mutant G106R (VH) (antibody, V domains shown) VH: QEQLVESGGGLVQPEGSLTLTCTASGFSFSSSYWICWVRQAPGKGLEWIACIYAGTSGSTYYASWAKGRFTISKTSSTTVDLQMNSLTAADTATYFCARAGYYTYRAGVYIYPSSFKLWGPGTLVTVSS VL: DVVMTQTPASVEAAVGGTVTIKCQASESIGNALAWYQQKPGQPPKLLIYSASNLASGVPSRFSGSGSGTQFTLTISDLECADAATYYCQSYYYSSSSITFGGGTEVVVK

Target: T1, human NMI (N-myc Interacting protein), …
Test: ELISA EC50 against parent 98G10

Row | Binder | Fold decrease in affinity [fold]
8 | 98G10 mutant G55W (VH) (antibody, V domains shown) VH: QEQLEESGGDLVKPEGSLTLTCTASGFSFSASYWICWVRQAPGKGLEWIACIYGWSSGSAYYASWAKGRFTISKTSSTTVTLQMTSLTAADTATYFCARAGYYNYGSAGDIYPSSFKLWGPGTLVTVSS VL: DIVMTQTPASVEAAVGGTVTINCQASQSISTALAWYQQKPGQPPKLLIYTASKVASGVPSRFSGSGSGTQFTLTISDLECADAATYYCQNYYYSSSSITFGGGTEVVVK | > 100
9 | 98G10 mutant G58V (VH) (antibody, V domains shown) VH: QEQLEESGGDLVKPEGSLTLTCTASGFSFSASYWICWVRQAPGKGLEWIACIYGGSSVSAYYASWAKGRFTISKTSSTTVTLQMTSLTAADTATYFCARAGYYNYGSAGDIYPSSFKLWGPGTLVTVSS VL: DIVMTQTPASVEAAVGGTVTINCQASQSISTALAWYQQKPGQPPKLLIYTASKVASGVPSRFSGSGSGTQFTLTISDLECADAATYYCQNYYYSSSSITFGGGTEVVVK | > 100
10 | 98G10 mutant S56N (VH) (antibody, V domains shown) VH: QEQLEESGGDLVKPEGSLTLTCTASGFSFSASYWICWVRQAPGKGLEWIACIYGGNSGSAYYASWAKGRFTISKTSSTTVTLQMTSLTAADTATYFCARAGYYNYGSAGDIYPSSFKLWGPGTLVTVSS VL: DIVMTQTPASVEAAVGGTVTINCQASQSISTALAWYQQKPGQPPKLLIYTASKVASGVPSRFSGSGSGTQFTLTISDLECADAATYYCQNYYYSSSSITFGGGTEVVVK | > 500

Next, values leading:

Row | Fold decrease in affinity [fold] | Binder
11 | > 500 | 98G10 mutant S57Q (VH) (antibody, V domains shown) VH: QEQLEESGGDLVKPEGSLTLTCTASGFSFSASYWICWVRQAPGKGLEWIACIYGGSQGSAYYASWAKGRFTISKTSSTTVTLQMTSLTAADTATYFCARAGYYNYGSAGDIYPSSFKLWGPGTLVTVSS VL: DIVMTQTPASVEAAVGGTVTINCQASQSISTALAWYQQKPGQPPKLLIYTASKVASGVPSRFSGSGSGTQFTLTISDLECADAATYYCQNYYYSSSSITFGGGTEVVVK
12 | > 500 | 98G10 mutant S57R (VH) (antibody, V domains shown) VH: QEQLEESGGDLVKPEGSLTLTCTASGFSFSASYWICWVRQAPGKGLEWIACIYGGSRGSAYYASWAKGRFTISKTSSTTVTLQMTSLTAADTATYFCARAGYYNYGSAGDIYPSSFKLWGPGTLVTVSS VL: DIVMTQTPASVEAAVGGTVTINCQASQSISTALAWYQQKPGQPPKLLIYTASKVASGVPSRFSGSGSGTQFTLTISDLECADAATYYCQNYYYSSSSITFGGGTEVVVK
13 | > 500 | 98G10 mutant S56P (VH) (antibody, V domains shown) VH: QEQLEESGGDLVKPEGSLTLTCTASGFSFSASYWICWVRQAPGKGLEWIACIYGGPSGSAYYASWAKGRFTISKTSSTTVTLQMTSLTAADTATYFCARAGYYNYGSAGDIYPSSFKLWGPGTLVTVSS VL: DIVMTQTPASVEAAVGGTVTINCQASQSISTALAWYQQKPGQPPKLLIYTASKVASGVPSRFSGSGSGTQFTLTISDLECADAATYYCQNYYYSSSSITFGGGTEVVVK
14 | > 500 | 98G10 mutant S57K (VH) (antibody, V domains shown) VH: QEQLEESGGDLVKPEGSLTLTCTASGFSFSASYWICWVRQAPGKGLEWIACIYGGSKGSAYYASWAKGRFTISKTSSTTVTLQMTSLTAADTATYFCARAGYYNYGSAGDIYPSSFKLWGPGTLVTVSS VL: DIVMTQTPASVEAAVGGTVTINCQASQSISTALAWYQQKPGQPPKLLIYTASKVASGVPSRFSGSGSGTQFTLTISDLECADAATYYCQNYYYSSSSITFGGGTEVVVK
